# Reference: the supplement of paper PMC11316812
# ± gives the standard deviation of the averaged measurements.
# Legend:
# [1] = test system: hTERT-HMEC; assay: percentage of EdU-negative (G0-arrested) nuclei per well, 72 h; higher = more G0 arrest; conditions: reference: sequence is the full UniProt precursor, the tested protein was the secreted form or ectodomain
# [2] = test system: MCF7; assay: as above; conditions: reference: sequence is the full UniProt precursor, the tested protein was the secreted form or ectodomain
# [3] = protein concentration 0.0055 µM
# [4] = protein concentration 0.0225 µM
# [5] = protein concentration 0.020665 µM
# [6] = protein concentration 0.20665 µM
# 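Note: secreted proteins added to cultured cells, EdU pulse at the end, nuclei found by Hoechst imaging, EdU status from nuclear versus surrounding ring intensity ratio, PBS as neutral control.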
Sequence,"percentage of EdU-negative [1, 4] [%]",percentage of EdU-negative ([1]; protein concentration 0.225 µM) [%],"percentage of EdU-negative [2, 4] [%]",percentage of EdU-negative ([2]; protein concentration 0.225 µM) [%],other results
MRLTVLCAVCLLPGSLALPLPQEAGGMSELQWEQAQDYLKRFYLYDSETKNANSLEAKLKEMQKFFGLPITGMLNSRVIEIMQKPRCGVPDVAEYSLFPNSPKWTSKVVTYRIVSYTRDLPHITVDRLVSKALNMWGKEIPLHFRKVVWGTADIMIGFARGAHGDSYPFDGPGNTLAHAFAPGTGLGGDAHFDEDERWTDGSSLGINFLYAATHELGHSLGMGHSSDPNAVMYPTYGNGDPQNFKLSQDDIKGIQKLYGKRSNSRKK,,,,,"percentage of EdU-negative [1, 3]: 5.71 ± 0.72%; percentage of EdU-negative ([1]; protein concentration 0.055 µM): 15 ± 1.8%; percentage of EdU-negative [2, 3]: 26.4 ± 1.6%; percentage of EdU-negative ([2]; protein concentration 0.055 µM): 29.9 ± 0.45%"
MASHSGPSTSVLFLFCCLGGWLASHTLPVRLLRPSDDVQKIVEELQSLSKMLLKDVEEEKGVLVSQNYTLPCLSPDAQPPNNIHSPAIRAYLKTIRQLDNKSVIDEIIEHLDKLIFQDAPETNISVPTDTHECKRFILTISQQFSECMDLALKSLTSGAQQATT [Q6EBC2],4.96 ± 0.56,5.69 ± 0.58,26.6 ± 1.1,24.9 ± 1.8,
MWDLVLSIALSVGCTGAVPLIQSRIVGGWECEKHSQPWQVAVYSHGWAHCGGVLVHPQWVLTAAHCLKKNSQVWLGRHNLFEPEDTGQRVPVSHSFPHPLYNMSLLKHQSLRPDEDSSHDLMLLRLSEPAKITDVVKVLGLPTQEPALGTTCYASGWGSIEPEEFLRPRSLQCVSLHLLSNDMCARAYSEKVTEFMLCAGLWTGGKDTCGGDSGGPLVCNGVLQGITSWGPEPCALPEKPAVYTKVVHYRKWIKDTIAANP,4.38 ± 0.36,5.65 ± 0.28,23.8 ± 1.7,24.8 ± 1.2,
MATSMGLLLLLLLLLTQPGAGTGADTEAVVCVGTACYTAHSGKLSAAEAQNHCNQNGGNLATVKSKEEAQHVQRVLAQLLRREAALTARMSKFWIGLQREKGKCLDPSLPLKGFSWVGGGEDTPYSNWHKELRNSCISKRCVSLLLDLSQPLLPSRLPKWSEGPCGSPGSPGSNIEGFVCKFSFKGMCRPLALGGPGQVTYTTPFQTTSSSLEAVPFASAANVACGEGDKDETQSHYFLCKEKAPDVFDWGSSGPLCVSPKYGCNFNNGGCHQDCFEGGDGSFLCGCRPGFRLLDDLVTCASRNPCSSSPCRGGATCVLGPHGKNYTCRCPQGYQLDSSQLDCVDVDECQDSPCAQECVNTPGGFRCECWVGYEPGGPGEGACQDVDECALGRSPCAQGCTNTDGSFHCSCEEGYVLAGEDGTQCQDVDECVGPGGPLCDSLCFNTQGSFHCGCLPGWVLAPNGVSCTMGPVSLGPPSGPPDEEDKGEKEGSTVPRAATASPTRGPEGTPKATPTTSRPSLSSDAPITSAPLKMLAPSGSPGVWREPSIHHATAASGPQEPAGGDSSVATQNNDGTDGQKLLLFYILGTVVAILLLLALALGLLVYRKRRAKREEKKEKKPQNAADSYSWVPERAESRAMENQYSPTPGTDC [Q9NPY3],5.36 ± 0.65,4.92 ± 0.54,25.7 ± 0.77,26.9 ± 0.77,
MVTLRKRTLKVLTFLVLFIFLTSFFLNYSHTMVATTWFPKQMVLELSENLKRLIKHRPCTCTHCIGQRKLSAWFDERFNQTMQPLLTAQNALLEDDTYRWWLRLQREKKPNNLNDTIKELFRVVPGNVDPMLEKRSVGCRRCAVVGNSGNLRESSYGPEIDSHDFVLRMNKAPTAGFEADVGTKTTHHLVYPESFRELGDNVSMILVPFKTIDLEWVVSAITTGTISHTYIPVPAKIRVKQDKILIYHPAFIKYVFDNWLQGHGRYPSTGILSVIFSMHVCDEVDLYGFGADSKGNWHHYWENNPSAGAFRKTGVHDADFESNVTATLASINKIRIFKGR,5.6 ± 0.99,6.41 ± 0.73,24.2 ± 3.6,28.079 ± 0.0073,
MLRRRGSPGMGVHVGAALGALWFCLTGALEVQVPEDPVVALVGTDATLCCSFSPEPGFSLAQLNLIWQLTDTKQLVHSFAEGQDQGSAYANRTALFPDLLAQGNASLRLQRVRVADEGSFTCFVSIRDFGSAAVSLQVAAPYSKPSMTLEPNKDLRPGDTVTITCSSYQGYPEAEVFWQDGQGVPLTGNVTTSQMANEQGLFDVHSILRVVLGANGTYSCLVRNPVLQQDAHSSVTITPQRSPTGAVEVQVPEDPVVALVGTDATLRCSFSPEPGFSLAQLNLIWQLTDTKQLVHSFTEGRDQGSAYANRTALFPDLLAQGNASLRLQRVRVADEGSFTCFVSIRDFGSAAVSLQVAAPYSKPSMTLEPNKDLRPGDTVTITCSSYRGYPEAEVFWQDGQGVPLTGNVTTSQMANEQGLFDVHSVLRVVLGANGTYSCLVRNPVLQQDAHGSVTITGQPMTFPPEALWVTVGLSVCLIALLVALAFVCWRKIKQSCEEENAGAEDQDGEGEGSKTALQPLKHSDSKEDDGQEIA [Q5ZPR3],,,,,percentage of EdU-negative ([1]; protein concentration 0.019 µM): 5.89 ± 0.34%; percentage of EdU-negative ([1]; protein concentration 0.19 µM): 9.74 ± 0.48%; percentage of EdU-negative ([2]; protein concentration 0.019 µM): 24.4 ± 2.3%; percentage of EdU-negative ([2]; protein concentration 0.19 µM): 27.33 ± 0.26%
MKVSEAALSLLVLILIITSASRSQPKVPEWVNTPSTCCLKYYEKVLPRRLVVGYRKALNCHLPAIIFVTKRNREVCTNPNDDWVQEYIKDPNLPLLPTRNLSTVKIITAKNGQPQLLNSQ,,,,,"percentage of EdU-negative [1, 5]: 5.16 ± 1.1%; percentage of EdU-negative [1, 6]: 5.51 ± 0.14%; percentage of EdU-negative [2, 5]: 22.9 ± 1.1%; percentage of EdU-negative [2, 6]: 25.9 ± 2.8%"
